Laboratory results taken from patent publication US20170015742A1 (published 2017).

Columns and labels:
[1] = target: recombinant human PDGF-BB (human, UniProt P01127 82-190); assay: cell-based or functional assay
[2] = target: recombinant human VEGF165 (human, UniProt P15692 207-395); assay: cell-based or functional assay
Target sequence in this assay (P15692 other isoform, or with tags, fused parts or gaps limits assumed): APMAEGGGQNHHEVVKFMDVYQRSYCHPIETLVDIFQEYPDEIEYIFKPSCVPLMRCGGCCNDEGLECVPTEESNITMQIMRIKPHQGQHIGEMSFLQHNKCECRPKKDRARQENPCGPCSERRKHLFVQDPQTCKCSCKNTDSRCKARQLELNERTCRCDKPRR

[3] = target: T1, recombinant human VEGF165 (human, UniProt P15692 207-395); assay: SPR (Biacore), antibody captured by anti-human Fc, hVEGF165 in solution
T1 construct: also called hVEGF165
Experimental: Unreacted moieties on the biosensor surface were blocked with ethanolamine. For kinetic analysis, rate equations derived from the 1:1 Langmuir binding model were fitted simultaneously to multiple antigen injections (using global fit analysis) with the use of Scrubber 2 (BioLogic Software), Biacore Biaevaluation 4.0.1 software or Biacore T100 Evaluation software. Purified antibodies or DVD-Ig molecules were diluted in running buffer for capture across goat anti-human Fc reaction surfaces. Antibodies or DVD-Ig molecules to be captured as a ligand (1 μg/ml) were injected over reaction matrices at a flow rate of 10 μl/minute. During the assay, all measurements were referenced against the capture surface alone (i.e., with no captured antibody or DVD-Ig molecule). […] The equilibrium dissociation constant KD (M) of the reaction between antibodies and the target antigen was then calculated from the kinetic rate constants by the following formula: KD=Koff/Kₒₙ. Binding was recorded as a function of time and kinetic rate constants were calculated. In this assay, on-rates as fast as 10⁶M⁻¹s⁻¹ and off-rates as slow as 10⁻⁶ s⁻¹ could be measured.
(§1) Affinity matured humanized anti-VEGF antibodies were characterized for hVEGF₁₆₅ binding and potency. Binding affinity of these molecules to hVEGF₁₆₅ was determined by Biacore analysis (Example 1.1). Potency was evaluated in both cell-based and ELISA formats. The ability to block binding of hVEGF₁₆₅ to hVEGFR2 was evaluated in a competition ELISA (Example 1.4) Inhibition of hVEGF₁₆₅-induced cell proliferation was assessed using HMVEC-d cells (Example 1.10).
T1 sequence (P15692 other isoform, or with tags, fused parts or gaps limits assumed): as above

[4] = target: T1, recombinant human VEGF165; assay: competition ELISA: antibody titrated against biotinylated hVEGF165, binding to plate-coated hVEGF-R2-Fc
Experimental: To identify molecules that could block the binding of hVEGF₁₆₅ to the hVEGF-R2 (KDR/Flk-1) receptor, a competition ELISA was performed. […] Plates were then washed four times with wash buffer (TBS, 0.05% Tween-20) and blocked with Superblock blocking buffer (Thermo Scientific, cat#37535). […] The pre-incubated sample/hVEGF₁₆₅ complex was added to the coated plate at 50 μL in duplicate and incubated for 30 minutes at 25° C. with shaking. Following incubation, plates were washed four times with wash buffer. Streptavidin-polyHRP-40 (Fitzgerald cal#65r-s104phrp) was diluted in assay diluent (10% Superblock containing 0.05% surfactamps) and added to plates (50 μL) for 45 minutes at 25° C. with shaking. Plates were washed four times with wash buffer and developed with the addition of Enhanced K-blue TMB substrate (Neogen cat#308177). The reaction was stopped with 2N sulfuric acid (VWR, cat# BDH3500-1) and the absorbance was read at 450 nm-570 nm. A decrease in observed optical density indicates the test molecule is blocking the hVEGF₁₆₅ binding to the hVEGF-R2-Fc. Data was analyzed using Softmax Pro 4.8 software and IC₅₀ values calculated using a sigmoidal dose response (variable slope) fit in GraphPad Prism 5.
as §1

[5] = target: T1, recombinant human VEGF165; assay: cell-based or functional assay; remark: listed apart in the source

Sequence of recombinant human PDGF-BB (P01127 82-190 limits assumed): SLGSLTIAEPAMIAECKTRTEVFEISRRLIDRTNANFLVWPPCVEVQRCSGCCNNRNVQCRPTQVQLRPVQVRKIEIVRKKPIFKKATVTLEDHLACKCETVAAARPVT

| Binder | Potency IC50 (nM), NIH-3T3 hPDGF-BB (proliferation) [1] [nM] | Potency IC50 (nM), HMVEC-d hVEGF165 (proliferation) [2] [nM] | Kd [3] [nM] | kon [3] [M⁻¹ s⁻¹] | IC50 [4] [nM] | hVEGF165 IC50 (nM), Potency HMVEC-d (hVEGF165-induced proliferation) [5] [nM] |
| --- | --- | --- | --- | --- | --- | --- |
| 9E8.4_GS_CL-34565 (PR-1613187) (bispecific antibody, human IgG1, kappa, L234A L235A) heavy: EVTLRESGPALVKPTQTLTLTCTFSGFSLSTYGMGVGWIRQPPGKALEWLANIWWDDDKYYNPSLKNRLTISKDTSKNQVVLTMTNMDPVDTATYYCARIESIGTTYSFDYWGQGTMVTVSSGGGGSGGGGSEVQLVQSGSELKKPGASVKVSCKASGYTFTDYGMYWVRQAPGQGLEWMGWIDTETGDPTYADDFKGRFVFSLDTSVSTAYLQISSLKAEDTAVYYCARTNYYYRNYMFYFDYWGQGTMVTVSSASTKGPSVFPLAPSSKSTSGGTAALGCLVKDYFPEPVTVSWNSGALTSGVHTFPAVLQSSGLYSLSSVVTVPSSSLGTQTYICNVNHKPSNTKVDKKVEPKSCDKTHTCPPCPAPEAAGGPSVFLFPPKPKDTLMISRTPEVTCVVVDVSHEDPEVKFNWYVDGVEVHNAKTKPREEQYNSTYRVVSVLTVLHQDWLNGKEYKCKVSNKALPAPIEKTISKAKGQPREPQVYTLPPSREEMTKNQVSLTCLVKGFYPSDIAVEWESNGQPENNYKTTPPVLDSDGSFFLYSKLTVDKSRWQQGNVFSCSVMHEALHNAYTQKSLSLSPGK light: EFVLTQSPGTLSLSPGERATLSCERSSGDIGDSYVSWYQQKPGQAPRLVIYADDQRPSGIPDRFSGSGSGTDFTLTISRLEPEDFAVYYCQSYDINIDIVFGGGTKVEIKGGSGGGGSGGEIVLTQSPATLSLSPGERATLFCRASQSVSNHMHWYQQKPGQAPRLLIYGASILESGVPARFSGSGSGTDFTLTISSLEPEDFAVYYCQQSWYDPITFGQGTKLEIKRTVAAPSVFIFPPSDEQLKSGTASVVCLLNNFYPREAKVQWKVDNALQSGNSQESVTEQDSKDSTYSLSSTLTLSKADYEKHKVYACEVTHQGLSSPVTKSFNRGEC | 0.134 | 0.058 | – | – | – | – |
| 9E8.4_GS_4G8.5 (PR-1613188) (bispecific antibody, human IgG1, kappa, L234A L235A) heavy: EVTLRESGPALVKPTQTLTLTCTFSGFSLSTYGMGVGWIRQPPGKALEWLANIWWDDDKYYNPSLKNRLTISKDTSKNQVVLTMTNMDPVDTATYYCARIESIGTTYSFDYWGQGTMVTVSSGGGGSGGGGSEIQLVQSGSELKKPGASVKVSCKASGYTFTNYGMYWVRQAPGQGLEYMGWINTETGKPTYADDFKGRFVFSLDTSVSTAYLQISSLKAEDTAVYFCARTNYYYRSYIFYFDYWGQGTMVTVSSASTKGPSVFPLAPSSKSTSGGTAALGCLVKDYFPEPVTVSWNSGALTSGVHTFPAVLQSSGLYSLSSVVTVPSSSLGTQTYICNVNHKPSNTKVDKKVEPKSCDKTHTCPPCPAPEAAGGPSVFLFPPKPKDTLMISRTPEVTCVVVDVSHEDPEVKFNWYVDGVEVHNAKTKPREEQYNSTYRVVSVLTVLHQDWLNGKEYKCKVSNKALPAPIEKTISKAKGQPREPQVYTLPPSREEMTKNQVSLTCLVKGFYPSDIAVEWESNGQPENNYKTTPPVLDSDGSFFLYSKLTVDKSRWQQGNVFSCSVMHEALHNAYTQKSLSLSPGK light: EFVLTQSPGTLSLSPGERATLSCERSSGDIGDSYVSWYQQKPGQAPRLVIYADDQRPSGIPDRFSGSGSGTDFTLTISRLEPEDFAVYYCQSYDINIDIVFGGGTKVEIKGGSGGGGSGGATQLTQSPSLSASVGDRVTITCRASESVSTHMHWYQQKPGKQPKLLIYGASNLESGVPSRFSGSGSGTDFTLTISSLQPEDFATYFCQQSWNDPFTFGQGTKLEIKRTVAAPSVFIFPPSDEQLKSGTASVVCLLNNFYPREAKVQWKVDNALQSGNSQESVTEQDSKDSTYSLSSTLTLSKADYEKHKVYACEVTHQGLSSPVTKSFNRGEC | 0.108 | 0.354 | – | – | – | – |
| 3E2.1_GS_1E3.4 (PR-1613190) (bispecific antibody, human IgG1, kappa, L234A L235A) heavy: EVQLVQSGAEVKKPGSSVKVSCKASGYTFTESYMYWVKQAPGQGLELIGRIDPEDGSTDYVEKFKNKATLTADKSTSTAYMELSSLRSEDTAVYFCARFGARSYFYPMDAWGQGTTVTVSSGGGGSGGGGSEIQLVQSGSELKKPGASVKVSCKASGYPFTNSGMYWVKQAPGQGLEYMGWINTEAGKPTYADDFKGRFVFSLDTSVSTAYLQISSLKAEDTAVYFCARWGYISDNSYGWFDYWGQGTLVTVSSASTKGPSVFPLAPSSKSTSGGTAALGCLVKDYFPEPVTVSWNSGALTSGVHTFPAVLQSSGLYSLSSVVTVPSSSLGTQTYICNVNHKPSNTKVDKKVEPKSCDKTHTCPPCPAPEAAGGPSVFLFPPKPKDTLMISRTPEVTCVVVDVSHEDPEVKFNWYVDGVEVHNAKTKPREEQYNSTYRVVSVLTVLHQDWLNGKEYKCKVSNKALPAPIEKTISKAKGQPREPQVYTLPPSREEMTKNQVSLTCLVKGFYPSDIAVEWESNGQPENNYKTTPPVLDSDGSFFLYSKLTVDKSRWQQGNVFSCSVMHEALHNAYTQKSLSLSPGK light: ETVLTQSPATLSLSPGERATLSCRASESVSTLMHWYQQKPGQQPRLLIYGASNLESGVPARFSGSGSGTDFTLTISSLEPEDFAVYFCQQSWNDPWTFGGGTKVEIKGGSGGGGSGGATQLTQSPSSLSASVGDRVTISCRASEGVYSYMHWYQQKPGKQPKLLIYKASNLASGVPSRFSGSGSGTDFTLTISSLQPEDFATYFCHQNWNDPLTFGQGTKLEIKRTVAAPSVFIFPPSDEQLKSGTASVVCLLNNFYPREAKVQWKVDNALQSGNSQESVTEQDSKDSTYSLSSTLTLSKADYEKHKVYACEVTHQGLSSPVTKSFNRGEC | 0.896 | 0.709 | – | – | – | – |
| 3E2.1_GS_CL-34565 (PR-1613189) (bispecific antibody, human IgG1, kappa, L234A L235A) heavy: EVQLVQSGAEVKKPGSSVKVSCKASGYTFTESYMYWVKQAPGQGLELIGRIDPEDGSTDYVEKFKNKATLTADKSTSTAYMELSSLRSEDTAVYFCARFGARSYFYPMDAWGQGTTVTVSSGGGGSGGGGSEVQLVQSGSELKKPGASVKVSCKASGYTFTDYGMYWVRQAPGQGLEWMGWIDTETGDPTYADDFKGRFVFSLDTSVSTAYLQISSLKAEDTAVYYCARTNYYYRNYMFYFDYWGQGTMVTVSSASTKGPSVFPLAPSSKSTSGGTAALGCLVKDYFPEPVTVSWNSGALTSGVHTFPAVLQSSGLYSLSSVVTVPSSSLGTQTYICNVNHKPSNTKVDKKVEPKSCDKTHTCPPCPAPEAAGGPSVFLFPPKPKDTLMISRTPEVTCVVVDVSHEDPEVKFNWYVDGVEVHNAKTKPREEQYNSTYRVVSVLTVLHQDWLNGKEYKCKVSNKALPAPIEKTISKAKGQPREPQVYTLPPSREEMTKNQVSLTCLVKGFYPSDIAVEWESNGQPENNYKTTPPVLDSDGSFFLYSKLTVDKSRWQQGNVFSCSVMHEALHNAYTQKSLSLSPGK light: ETVLTQSPATLSLSPGERATLSCRASESVSTLMHWYQQKPGQQPRLLIYGASNLESGVPARFSGSGSGTDFTLTISSLEPEDFAVYFCQQSWNDPWTFGGGTKVEIKGGSGGGGSGGEIVLTQSPATLSLSPGERATLFCRASQSVSNHMHWYQQKPGQAPRLLIYGASILESGVPARFSGSGSGTDFTLTISSLEPEDFAVYYCQQSWYDPITFGQGTKLEIKRTVAAPSVFIFPPSDEQLKSGTASVVCLLNNFYPREAKVQWKVDNALQSGNSQESVTEQDSKDSTYSLSSTLTLSKADYEKHKVYACEVTHQGLSSPVTKSFNRGEC | 1.16 | 0.063 | – | – | – | – |
| CL-32416-IgG (antibody, V domains shown, also called h4G8 CL-32416) VH: EVQLVQSGSELKKPGASVKVSCKASGYTFTDYGMYWVRQAPGQGLEWMGWIDTETGEPTYADDFKGRFVFSLDTSVSTAYLQISSLKAEDTAVYYCARTNYYYRSYMFYFDYWGQGTMVTVSS VL: EIVLTQSPATLSLSPGERATLSCRASESVSTHMHWYQQKPGQAPRLLIYGASNLESGVPARFSGSGSGTDFTLTISSLEPEDFAVYFCQQSWNDPFTFGQGTKLEIK | – | – | 0.00054 | 2e+07 | < 0.1 | 0.117 |
| CL-34449-IgG (antibody, V domains shown, also called h4G8 CL-34449) VH: EVQLVQSGSELKKPGASVKVSCKASGYTFTDYGMYWVRQAPGQGLEWMGWIDTETGEPTYADDFKGRFVFSLDTSVSTAYLQISSLKAEDTAVYYCARTNYYYRSYMFYFDYWGQGTMVTVSS VL: EIVLTQSPATLSLSPGERATLSCRASQSVGTHMHWYQQKPGQAPRLLIYGASHLESGIPARFSGSGSGTDFTLTISSLEPEDFAVYYCQQTWYDPLTFGQGTKLEIK | – | – | 0.00085 | 1.1e+07 | < 0.1 | 0.077 |
| CL-34469-IgG (antibody, V domains shown, also called h4G8 CL-34469) VH: EVQLVQSGSELKKPGASVKVSCKASGYTFTNYGMYWVRQAPGQGLEWMGWIDTETGEPTYADDFKGRFVFSLDTSVSTAYLQISSLKAEDTAVYYCARTNYYYRSYMFYFDYWGQGTMVTVSS VL: EIVLTQSPATLSLSPGERATLSCRASQSVSTHMHWYQQKPGQAPRLLIYGASNLESGVPARFSGSGSGTDFTLTISSLEPEDFAVYYCQQSWYDPLTFGQGTKLEIK | – | – | 0.00062 | 1.5e+07 | < 0.1 | 0.094 |
